Measured values as given in patent US10414821 (dated 2019).

Tests used:
PD-1 protein = PD-1 protein (UniProt Q15116 25-167); assay: blocking ELISA (PD-1/PD-L1)
[1] = molecular target: purified recombinant PD-1 fusion protein (Sino Biological Inc, Cat #: 10377-H08H) (human, UniProt Q15116 25-170); assay: ELISA
purified recombinant PD-1 fusion protein (Sino Biological Inc, Cat #: 10377-H08H), sequence (Q15116 25-170): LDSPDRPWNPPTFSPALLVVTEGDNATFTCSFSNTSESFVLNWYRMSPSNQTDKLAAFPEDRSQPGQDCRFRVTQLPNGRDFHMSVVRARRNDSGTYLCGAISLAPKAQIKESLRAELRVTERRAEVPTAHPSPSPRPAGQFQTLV

PD-1 protein, sequence (Q15116 25-167): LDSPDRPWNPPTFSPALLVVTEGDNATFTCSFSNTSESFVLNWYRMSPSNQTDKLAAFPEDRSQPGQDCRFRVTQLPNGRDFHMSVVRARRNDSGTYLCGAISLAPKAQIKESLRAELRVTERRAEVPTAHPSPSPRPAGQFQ

B1: BA08-1 (antibody, V domains shown)
VH: QVQLVQSGAEVKKPGASVKVSCKASGYTFTSYYMYWVRQAPGQGLEWMGGVNPSNGGTNFNEKFKSRVTITADKSTSTAYMELSSLRSEDTAVYYCARRDYRYDMGFDYWGQGTTVTVSS
VL: EIVLTQSPATLSLSPGERATISCRASKGVSTSGYSYLHWYQQKPGQAPRLLIYLASYLESGVPARFSGSGSGTDFTLTISSLEPEDFATYYCQHSRELPLTFGTGTKVEIK
- IC50 (PD-1 protein): 0.288 nM
- EC50 [1]: 0.0371 nM
